{"source": "patent US10603364B2", "about": "“Lysosomal targeting and uses thereof” (Shire Human Genetic Therapies, Inc., priority 2014, dated 2020)", "molecules": {"B1": {"name": "Naglu-SPP: Fusion protein of human Naglu and SORT1 propeptide (SPP) via GAG3 linker; SEQ ID NO:17 (full-length), SEQ ID NO:22 (protein)", "chain": "MEAVAVAAAVGVLLLAGAGGAAGDEAREAAAVRALVARLLGPGPAADFSVSVERALAAKPGLDTYSLGGGGAARVRVRGSTGVAAAAGLHRYLRDFCGCHVAWSGSQLRLPRPLPAVPGELTEATPNRYRYYQNVCTQSYSFVWWDWARWEREIDWMALNGINLALAWSGQEAIWQRVYLALGLTQAEINEFFTGPAFLAWGRMGNLHTWDGPLPPSWHIKQLYLQHRVLDQMRSFGMTPVLPAFAGHVPEAVTRVFPQVNVTKMGSWGHFNCSYSCSFLLAPEDPIFPIIGSLFLRELIKEFGTDHIYGADTFNEMQPPSSEPSYLAAATTAVYEAMTAVDTEAVWLLQGWLFQHQPQFWGPAQIRAVLGAVPRGRLLVLDLFAESQPVYTRTASFQGQPFIWCMLHNFGGNHGLFGALEAVNGGPEAARLFPNSTMVGTGMAPEGISQNEVVYSLMAELGWRKDPVPDLAAWVTSFAARRYGVSHPDAGAAWRLLLRSVYNCSGEACRGHNRSPLVRRPSLQMNTSIWYNRSDVFEAWRLLLTSAPSLATSPAFRYDLLDLTRQAVQELVSLYYEEARSAYLSKELASLLRAGGVLAYELLPALDEVLASDSRFLLGSWLEQARAAAVSEAEADFYEQNSRYQLTLWGPEGNILDYANKQLAGLVANYYTPRWRLFLEALVDSVAQGIPFQQHQFDKNVFQLEQAFVLSKQRYPSQPRGDTVDLAKKIFLKYYPRWVAGSWGAPGGGGGAAAAAGGGGGGAPGGGGGAAAAAGGGGGGAPGGGGGAAAAAGGGGGGAPQDRLDAPPPPAAPLPRWSGPIGVSWGLRAAAAGGAFPRGGRWRR"}}, "key": {"[1]": {"target": "T1, recombinant 6×Histidine tagged human SORT1 (Homo sapiens, UniProt Q99523)", "T1 sequence (Q99523 78-831)": "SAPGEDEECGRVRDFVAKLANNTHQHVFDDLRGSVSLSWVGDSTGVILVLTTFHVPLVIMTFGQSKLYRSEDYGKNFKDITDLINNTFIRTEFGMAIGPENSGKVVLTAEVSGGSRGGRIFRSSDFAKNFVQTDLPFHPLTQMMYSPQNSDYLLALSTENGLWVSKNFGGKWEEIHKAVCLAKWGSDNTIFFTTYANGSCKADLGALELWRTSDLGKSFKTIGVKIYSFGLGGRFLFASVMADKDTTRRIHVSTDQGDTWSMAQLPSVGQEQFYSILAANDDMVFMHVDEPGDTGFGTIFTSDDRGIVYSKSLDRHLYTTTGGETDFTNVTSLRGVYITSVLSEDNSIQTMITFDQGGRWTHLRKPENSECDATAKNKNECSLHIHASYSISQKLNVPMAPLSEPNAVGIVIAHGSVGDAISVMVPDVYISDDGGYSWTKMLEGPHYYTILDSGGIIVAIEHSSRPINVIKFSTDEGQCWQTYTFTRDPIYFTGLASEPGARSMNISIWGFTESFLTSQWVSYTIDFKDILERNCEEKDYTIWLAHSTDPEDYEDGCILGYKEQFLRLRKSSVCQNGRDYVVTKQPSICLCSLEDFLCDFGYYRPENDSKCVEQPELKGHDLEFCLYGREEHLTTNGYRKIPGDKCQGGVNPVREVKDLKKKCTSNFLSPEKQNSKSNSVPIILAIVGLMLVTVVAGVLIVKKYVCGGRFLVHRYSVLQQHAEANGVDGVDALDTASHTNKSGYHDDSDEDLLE", "assay": "Surface plasmone resonance binding of Naglu-SPP to SORT1", "procedure": "Studies were also carried out to determine the binding properties of Naglu-SPP and evaluate its specificity for SORT1 by surface plasmone resonance (SPR), a commonly used standard technique. Briefly, anti-His mAb (capturing molecule) was diluted in immobilization buffer and bound on the dextran surface of a SPR sensor chip housed in a microfluidic system. Next, a solution containing recombinant 6×Histidine tagged human SORT1 (ligand) was injected into the microflow system and run over the surface-bound anti-His mAbs to form a “capture complex.” A solution containing purified Naglu-SPP protein (analyte) was then injected into the device. As the solution moved over the SPR sensor chip, the analyte bound to the capture complex and an increase in SPR signal (expressed in response units, RU) was observed. Finally, a solution without analyte was injected into the microfluidic device to detach bound […] from the capture complex, resulting in a decrease in SPR signal. The detailed experimental conditions are described in Table 6 below."}, "Naglu KO mice": {"tested_on": "Naglu KO mice", "assay": "Heparan sulfate in brain by LC/MS", "format": "in vivo", "settings": "intrathecal, 520 mg/kg brain, 2× weekly and 3× weekly", "procedure": "To evaluate the in vivo activity of Naglu-SPP and its efficacy as a therapeutic for the treatment of lysosomal storage diseases, particularly San B, Naglu-SPP was administered to Naglu KO mice via intrathecal injection. Intrathecal administration of Naglu-IGFII served as a positive control. The experimental conditions used for this assay are described in Tables 10 and 11 below.\nIn a second assay, we evaluation the total amount of heparan sulfate in the brain of treated KO mice. […] To measure heparan sulfate in mouse brain tissue, a highly sensitive LC/MS method was applied (Lawrence et al, 2012, Nat Chem Biol. 2012 Jan. 8; 8(2):197-204). Briefly, total GAG from brain tissue was extracted by a DEAE column and a desalting column, and then dried and weighted. The extracted GAG was treated with heparin lyases that specifically release unique mono, di and tri saccharides of heparan sulfate, and the sample was then analyzed by LC/MS. The released saccharides were identified and quantified using commercially available saccharide standards of heparan sulfate degradation."}}, "data": [{"molecule": "B1", "values": [{"measurement": "average association constant (Ka)", "setting": "[1]; SPR, Naglu-SPP 0 to 20 nM", "value": "approximately 1.1×10^6 1/Ms"}, {"measurement": "dissociation constant (Kd)", "setting": "[1]; SPR, Naglu-SPP 0 to 20 nM", "value": "approximately 7.1×10^−4 1/s"}, {"measurement": "binding to SORT1", "setting": "[1]; all concentrations tested (0 to 20 nM)", "value": "strong binding"}, {"measurement": "total amount of heparan sulfate accumulation in brain tissue", "setting": "Naglu KO mice", "value": "strong reduction"}]}]}
